Each sequence was assayed on Saccharomyces cerevisiae (assay: transcriptional activation domain activity (GFP:mCherry ratio, weighted mean of sorted bins, harmonized to initial dataset scale) (arbitrary fluorescence ratio units); higher = stronger transcriptional activation). Conditions: beta-estradiol 1 µM; induction time 4 h.
How it was run: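 Each value is an activation activity: the read-weighted mean of bin median fluorescence, averaged across barcodes, then mapped linearly to the initial dataset scale. The tiles, fused to an estradiol-inducible synthetic transcription factor, sat at the yeast URA3 locus in GFP-reporter diploids. Cells spent 4 hours at 30 °C in SC with 1 uM beta-estradiol before sorting into 8 GFP:mCherry bins, and tiles below 50 reads were removed.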

| Sequence | transcriptional activation domain activity |
| --- | --- |
| AWCHLSVVGRASNLVVYLLIRARKLQLDLGLGFYQRSLLMLCEKLIVVDIFSL | 63400 |
| PTRRSFSSAWFLCIRYFSLCSNIVVIVDTFGTFSYNVPMYGLSKKLLMWLACV | 47900 |
| RTYVQYWIQAFPKIARFFTIFFAAMSVTRYKAFMDSPVLALNNLAKRILRMSL | 44500 |
| LLYLGCRWCTLIAIIFHFLGFDGGHRIDCQFMGYFSFTCASALIVLRIVAFWA | 66900 |
| DDENEGSDTEAEAPAEKPKRGRKKAAPKEGADGEEEAPAAKKAAPRGRGKKAA | 6980 |
| LVRDGILYFFVYTYRNALYQVYVVFGLAAVATLTLNAQLVLNTFLFIIFYVLV | 56900 |
| MPLPPGISYILKRAPSLLLPGVITYFASKYVVNYCRLTLPRWILCALVLLAKP | 86300 |
| NLCMQLLVAPTRDEIDAAHRRKIWLDVGIQSWRNLTNIMPSRMWIWIILLLSS | 34900 |
| MLLCLSFLCCYYDISNVSRCYCLFCCIILLFLSCSLLFWLAFSQFLRFFLISF | 62000 |
| TSTKKTTTTKKATSTKSATATSSCTKYTVKKGDTCSSIASKVGGTTAAKIISK | 34000 |
| MILLVSFFFLLLIFFFSIREFRSECIVNDFWSFVYLSAYIVLDVCRIFFFLFW | 25600 |
| MPTPSFFCFFLLFLSPMLNMRGDTFTAPLIFSFFVFFFFFFMLSLHFLLVFFS | 46400 |
| WWLVKVTVSVLWVLDTFDMCLIFHILYWYLIINYGNPLSLANPIWSIILHVLV | 64800 |
| WYTTISSTGLLSLLLYSLPFQPARLWVLGGILYIFSLVSFCALLLVHLVRFLV | 47500 |
| ATCPSFFRSICSTYYDNFVFVWDAVAAFLVPYQRYTYYPIMGIARFNLYLLSW | 52400 |
| FYGDISLSRRGFLIASMFILRLFRAISYLAFNAILVDMPTRQAILRFFHYFGR | 50200 |
| DDAAADLQEAQAGASKKNRKRNRKKNAQDGPAEEATPSKGARQGKKGKGWRET | 12000 |
| LFTSLLTSPFLFSLPLLSISASSFLIPPSPFHSLFLPLSLPFPLLYPFPSLFF | 49800 |
| PLVLPVTAFYFYMDSFLKKYLLLYVFITKYESGGMFWRVVFNRFLFLTLLGNI | 60500 |
| MSWQKVHSLFFLYFILPHGGFLFLVIRNIFFFFTYDLVLLWSFKFLLHLYVIF | 59800 |
| ETPAAEPVKETETAAEAAPAEAAAEATPEEAKEEKKEEKKEEKVKGSKVGRRL | 32500 |

| Sequence | transcriptional activation domain activity |
| --- | --- |
| ILLSLFANHFPWDFRDALCLEFWVVAFRNLEMLEYFDGDLLLSEHGGTCTVSK | 34800 |
| ACIVFWMGSWVYKYQLMFVFVSKVESGGRVWNVVINRLLFCVVLMQCLMILTI | 73700 |
| AETKCEGATTNHMKVEKREKKKRGEKAADKSKEERRSKRKEKQRKEGKTVRNG | 6970 |
| RMGMTQELLALVTGLAHYLKILIRIALTGALKLERDYVLREAISSFLDKLHLL | 69700 |
| LFGLFGPLDLWTFWTFGLFGLFGLFGLFGLFGLGLFGLLDFLDFWPWTFWPWI | 57700 |
| ENSEDALHNSETMDLLGTLSHGNDFALEYNFDFTLLNEIDMLIGGNTNDGLSK | 101000 |
| MLLGRHIFLYFILSFFLSFWLHTIPYLLLDFTYYHNPIISTLPTSYFFSIFLI | 72200 |
| PVKKLYLLVQYIQDLGRVCGIPVSPLCCVQALQAKLGPIAQACVSARIWARWR | 67400 |
| EAPAPKKARGRPKKAAVKEDDAGSEEEAPAPKKAKGRLPKAVLKEEAESEAEA | 12900 |
| TFTDIPVVVCHVFKQKLAKLMSNLCTMFPNAGWLVYSITSIEFQKHGVTHRND | 51100 |
| MSAAEDNKPVEAVEKVEEAPQAEEVPKVEEAPAQEEAGATASEKKDANILKTT | 25700 |
| MLFIFFVIFFYFFLFSSIFFYHFIFLFSLELSLYFVDLSLELIPIYFPVCILS | 46300 |
| VVAYGSGKEEGMKVEGEGEGGKVLRDIIDKLGHALTSTRFAGLPLPHVLAVVK | 69700 |
| TPIFMLIRIMIIGAHGVYQTAYRIVTKTQWEDGREIEDVYTYVGNERIDIKIV | 28300 |
| EEEEEEERPAKRQKKKLAAEEDEEEGEGEGEEEEEEEERPAKRQKKKPAAEDE | 26900 |
| EWTRLVQNPAASPRLLNGFIRQMLADLPTTSILVLVRTALEVSVESYAQAGST | 58700 |
| KQYCVRPNSGRIEPGKDVEVQVLLQAMKEDPPLDAKCRDKFLVQSVAVTADKE | 24900 |
| IGFYFLEYGQNCFRDDSDGPCWAGRYMVNVWNDLAVLRRLICYAAVQLARQHR | 40900 |
| VKGAGKGKGKDDGKKNSMVLLLLCSLLSVNFMLGNYAPQLWILLLVPMSLAAP | 45000 |
| PTWGLVLRLGCGIVYIVIFLVYVGLGGVFPGRYTYWGLSADNAGIMVYVLLCV | 60400 |
| PPEEEAEEAVGAEKAEEAEEAEEAEEAVEEEPPKAANGRRSRAAAASAAKSSN | 35500 |

| Sequence | transcriptional activation domain activity |
| --- | --- |
| TAVSQLERAIARILLIRYEQDIARLFSTRLYSVALVHLPTFVMRCAALAGPGW | 50400 |
| GGETEGESPEAPVPGGETPSEGGETETPSEGGETEGESPETPVPGGETPSEGG | 16800 |
| MGPISFFFLFWRYYRLYCLFFVFFFFSTGLRWHDTLFHFLSFLLLGLPLLKRS | 82100 |
| MYCSLQTLLFRFFAYWQGMTFFGFLFCFHVLGSQNLFFGSCFVLLLMQLLCLF | 58900 |
| KQLAKKTESFSGSDLKHLCVSAALDAVKERVTVPWRHSTTSAPSSSAPAEAQP | 19000 |
| VGLVGMSLSILGKDHLVWNALAACRTEISEVFERMLRALYHWMIDVAHQYCGK | 56300 |
| MSNWLWIFLLLFFAFFCRSFTSCFIRLSVHIYTHCCMCSLGGLLVYLARSLFF | 44200 |
| LFPFLFFFFFFLFFSFFLSFFPSSCFLLFSPFFSLVFPFFSLVFFSSFLFFSF | 26800 |
| FSDGELSDDALDKQGKKEKKRKAKAIESGDATPVESKPEKERKKKKSKPEAET | 31100 |
| RSPRRQTQSSSTTPPARKTPTQTTKTHRTTSPTTRSSCRRASGRQTAPTHSSC | 43100 |
| IARADRTSPNDGGVALKKHVVVFASRPGLGLLIAAYLHKNLRSDWNIQLILGC | 66700 |
| MRGFYYYLFCLFAEFGIHGVLFHGGFFLLLFFFLSSSLWLALTRFRWPFPFVF | 57800 |
| GGEEGRRKEREAGGRGTQKGEEEGDEVGRGGRGRRQREGRERGEARAGAGRRR | 30800 |
| PAPAPAPAPRKGRSKKPVASPSASPVLAPAPAPAIALRKGRSKKPVASPSASP | 36100 |
| ILLHIYVLGVCYFTFPLFLNGFAHWGLWKLDRITPVENLVQQYILKPYFKSYC | 62900 |
| RLCEFLFFLLFFGGFLVGGLVGLGVWFGWAFVLAFSFFLALHFGVSNHLFVVF | 29000 |
| LLKAVQEDEGDDGVIVAYLDTLVPLLEDYLTSGPLGQFTLRLRLLLSFQVYAS | 53800 |
| VSASVVYLFFIFIFSLSYPILSCPYLLTHSLTLSILPPFSFPLPFFFLSFFLP | 58800 |
| MNILNLEMWYYLLECLNLRFVLVFFLLSLFFSSRFTGGLVGVECFSFFVWITM | 86000 |
| GSEIVDGDEESSPDGVRIKAESGSSAPVATSSALPPQGGYIGRLNVRKSGKIE | 29800 |
| LLLFLFLRICFGLHVLATSAWFFYPSFLYGLSLITLPLFYGGVDPSVPWLFDG | 48900 |

| Sequence | transcriptional activation domain activity |
| --- | --- |
| RSSVGAYIKPKQQVVAVPCVGPHDSGINVLYLCAPSVEEVVMLTRFVILHLGG | 55500 |
| TSWKNEDQALVFHLRSRVSAAIMKLECHRDRRIDLLITFREAQRFLLELIGWV | 59400 |
| MRHVASRWPILPRLLVPIFHLLAWFLIPVGRLCIRSFPLIFSVVCFLCAFSSC | 51100 |
| MSSSLPSESPCQEPTKRRRKVKTGCRTCKIRRVKCDEGRPACHRCVSTGRVCD | 54000 |
| RSLQLSWSILLRFFKEHFCMDRLSLTIVDLGTLGSPLIRSERNGYLRRFFQVF | 46700 |
| MLPHCIVIIGILFSLLSDVYLYLESSLIHKVHLSSIPGTLLWHPAFFLCILCK | 55800 |
| RRARSVVEVAQTDDTGEEEDNNINSSNNINNKKKKIILELENGAETLEGDLLL | 16500 |
| MLVRLFFCCYCCCLPVCLSVCLLHVVRCVMLLLTLMLFALLLRTCATLFFLFF | 61400 |
| LQVVIEECDLMPTVAVLLRDAKKVFPERDGFFLYRQMAISVVCVYILCSLFAL | 67900 |
| EEDEETSHEVRSKVYKLVKKSDGNQEWNDMGVETGSRRVLLRNSSTGKIVINF | 25400 |
| EREERRRQERAKEEAEGGNRRGKKNKGEAGGGKRGRGKRPRRGRRKGQRARGG | 34400 |
| EVGAKTFLAGLAGSGGSGGVYRCVIDKSRPAVWRLRKNDAPLSSFAAALLVSN | 72500 |
| AAKALCKLQEAILKTYGMPGLLCMLRGISFHIYAVLTCTMLHLVAITCPDPDI | 32900 |
| MTWFLSFWLKCGFVLLGLFFDFFLFCNRFLYASISFFFFFHSLSLFWNRNHLF | 79900 |
| YSNSISNSNSNSTGNLNSSYFNSLNIDSMLDDYVSSDLLLNDDDDDTNLSRRR | 88700 |
| RKHMMAFYFDDILEKVVGTATMDERGVFIRDNERGILWCLLVFRMLCWLILHD | 58000 |
| EVETRYTLAIELFQPILKVLVDFESDDLKFGFLVAWLVGLYRRLWELCVFKYI | 58900 |
| MPVLFVFFSSFHSFIFLFFFYYGWLKVVIQVVMRLWGYKSLVGFFFLHGLLVC | 66500 |
| VEPAPENWRELTQIPAFAGIRSASFVRHTVALVESLLLRAAFVRAVFAELRAC | 53700 |
| SKARSRGQSSRTRKRGRQESSGESSSSEEEDSYRGRQGRSKAGKKGKDKGKGK | 27200 |

Reference: the supplement of paper PMC12636428
